The target of the data set is N-mEGFP full length (nucleocapsid) (SARS-CoV-2, UniProt P0DTC9 1-419). Description: EMSA; 200 nM RNA; N-mEGFP titrated. Particulars: protein: recombinant; tags: C-terminal mEGFP; pET28a(+), Ni-purified (His tag implied); chain copies: 2. A general note: Mobility shift assays separate free from complexed probe on a gel.

Experimental findings from PMC8035206 are described below.

B1: 55-nt vRNA (5' UTR segment) (ssRNA)
RNA: AUUAAAGGUUUAUACCUUCCCAGGUAACAAACCAACCAACUUUCGAUCUCUUGUA
Regarding B1, the binding result is on record as “binds”.
